# What was measured:
# [1] = biological target: human full-length Hsp90β (human) (UniProt P08238); test: ITC; conditions: domain or fragment
# [2] = biological target: IANBD-labeled Hsp90 M362C (human); test: stopped-flow fluorescence; IANBD-labeled Hsp90 M362C (1 µM) mixed with equal volumes of FKBP51, FK1-FK2, FK2-TPR or buffer, pseudo-first-order, 37 °C, 25 mM sodium phosphate/300 mM NaCl pH 7.2; rates as fluorescence increase at 20 s
# Chain of FK2-TPR (which lacks FK1) (Q13451 whole entry): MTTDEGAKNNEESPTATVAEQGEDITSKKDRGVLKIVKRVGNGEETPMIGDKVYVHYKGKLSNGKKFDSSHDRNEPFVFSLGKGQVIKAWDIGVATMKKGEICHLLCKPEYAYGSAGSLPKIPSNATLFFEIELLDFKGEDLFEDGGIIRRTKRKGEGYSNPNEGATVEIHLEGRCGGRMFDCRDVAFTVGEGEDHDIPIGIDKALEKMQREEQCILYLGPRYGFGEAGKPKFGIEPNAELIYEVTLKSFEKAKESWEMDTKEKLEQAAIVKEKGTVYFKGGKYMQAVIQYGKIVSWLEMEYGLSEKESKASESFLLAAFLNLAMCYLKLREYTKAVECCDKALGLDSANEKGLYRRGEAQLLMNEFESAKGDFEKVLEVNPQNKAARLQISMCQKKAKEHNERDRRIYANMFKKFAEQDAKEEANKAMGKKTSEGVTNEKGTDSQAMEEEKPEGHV
# Chain of human full-length Hsp90β (human) (P08238 whole entry, the tested form may be a part): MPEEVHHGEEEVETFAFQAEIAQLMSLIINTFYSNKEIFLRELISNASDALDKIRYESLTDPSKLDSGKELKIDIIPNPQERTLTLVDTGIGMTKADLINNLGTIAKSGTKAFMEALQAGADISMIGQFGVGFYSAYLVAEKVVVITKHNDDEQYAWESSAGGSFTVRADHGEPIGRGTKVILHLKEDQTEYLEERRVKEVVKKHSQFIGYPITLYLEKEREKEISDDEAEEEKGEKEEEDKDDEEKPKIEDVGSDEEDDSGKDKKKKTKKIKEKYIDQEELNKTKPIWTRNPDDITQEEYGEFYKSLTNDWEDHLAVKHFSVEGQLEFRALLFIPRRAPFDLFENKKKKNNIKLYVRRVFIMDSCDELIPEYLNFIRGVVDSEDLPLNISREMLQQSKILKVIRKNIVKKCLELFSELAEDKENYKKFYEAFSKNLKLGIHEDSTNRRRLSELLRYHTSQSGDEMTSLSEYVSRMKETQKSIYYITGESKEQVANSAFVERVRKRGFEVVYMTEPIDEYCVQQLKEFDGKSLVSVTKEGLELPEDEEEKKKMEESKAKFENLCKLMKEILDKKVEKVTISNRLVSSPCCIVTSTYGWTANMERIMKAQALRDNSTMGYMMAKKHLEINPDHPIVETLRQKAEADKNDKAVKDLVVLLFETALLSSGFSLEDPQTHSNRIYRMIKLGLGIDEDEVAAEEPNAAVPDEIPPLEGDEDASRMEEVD
Substance,Kd [1] [nM],"ΔF (rate of Hsp90 binding, fluorescence increase) [2] [s⁻¹]"
FK2-TPR (which lacks FK1) (from UniProt Q13451 1-457),728,–
FK2-TPR (which lacks FK1) (from UniProt Q13451 1-457) (domain or fragment),–,0.0027

# Reference: article PMC6208366
